Source: US20180346564A1 (TEIJIN PHARMA, published 2018)
[ ]: non-standard residue; d: D form. pT = C[C@@H](OP(=O)(O)O)[C@H](N)C(=O)O; pS = N[C@@H](COP(=O)(O)O)C(=O)O

T1: Peptide No. 7, pS396/pS400/pS404, H-GC-RENAKAKTDHGAEIVYK(pS)PVV(pS)GDT(pS)PRHL-OH (human, phosphoserine (pS) at peptide positions 20, 24 and 28 (tau Ser396, Ser400, Ser404))
T1 peptide: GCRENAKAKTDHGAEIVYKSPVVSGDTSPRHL

T2: Peptide No. 8, pS412, H-NV(pS)STGSC-OH (human, SMILES CC(C)[C@H](NC(=O)[C@@H](N)CC(N)=O)C(=O)N[C@@H](COP(=O)(O)O)C(=O)N[C@@H](CO)C(=O)N[C@H](C(=O)NCC(=O)N[C@@H](CO)C(=O)N[C@@H](CS)C(=O)O)[C@@H](C)O)
T2 peptide: H-NV[pS]STGSC-OH

T3: Peptide No. 6, pT231, H-KVAVVR(pT)PPKSPS-OH (human)
T3 peptide: H-KVAVVR[pT]PPKSPS-OH

T4: Peptide No. 4, pT212/pS214, H-GCGSPGTPGSRSR(pT)P(pS)LPTPPTREPK-OH (human, phosphothreonine (pT) at peptide position 14 (tau Thr212); phosphoserine (pS) at peptide position 16 (tau Ser214))
T4 peptide: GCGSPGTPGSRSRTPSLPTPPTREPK

T5: Peptide No. 3, pS202, H-SSPG(pS)PGTPC-OH (human, SMILES C[C@@H](O)[C@H](NC(=O)CNC(=O)[C@@H]1CCCN1C(=O)[C@H](COP(=O)(O)O)NC(=O)CNC(=O)[C@@H]1CCCN1C(=O)[C@H](CO)NC(=O)[C@@H](N)CO)C(=O)N1CCC[C@H]1C(=O)N[C@@H](CS)C(=O)O)
T5 peptide: H-SSPG[pS]PGTPC-OH

T6: Peptide No. 2, pS199, H-SGYS(pS)PGSPGC-OH (human, SMILES N[C@@H](CO)C(=O)NCC(=O)N[C@@H](Cc1ccc(O)cc1)C(=O)N[C@@H](CO)C(=O)N[C@@H](COP(=O)(O)O)C(=O)N1CCC[C@H]1C(=O)NCC(=O)N[C@@H](CO)C(=O)N1CCC[C@H]1C(=O)NCC(=O)N[C@@H](CS)C(=O)O)
T6 peptide: H-SGYS[pS]PGSPGC-OH

T7: Peptide No. 5, pT217, H-GC-GSRSRTPSLP(pT)PPTREPKKVAVV-OH (human, phosphothreonine (pT) at peptide position 13 (tau Thr217))
T7 peptide: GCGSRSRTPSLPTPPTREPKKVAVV

T8: Peptide No. 1, pS46, H-GLKE(pS)PLQT-OH (human, SMILES CC(C)C[C@H](NC(=O)CN)C(=O)N[C@@H](CCCCN)C(=O)N[C@@H](CCC(=O)O)C(=O)N[C@@H](COP(=O)(O)O)C(=O)N1CCC[C@H]1C(=O)N[C@@H](CC(C)C)C(=O)N[C@@H](CCC(N)=O)C(=O)N[C@H](C(=O)O)[C@@H](C)O)
T8 peptide: H-GLKE[pS]PLQT-OH


Tests used:
[1] = molecular target: Ser413 phosphorylated tau protein (pSer413-Tau) derived from Alzheimer's disease patient brain homogenate (human, UniProt P10636-8 2-441, limits assumed, phosphoserine at Ser413 (numbering of SEQ ID NO: 1)); experiment: cell-based or functional assay
[2] = molecular target: T9, His-tagged non-phosphorylated tau protein 4R0N (human, UniProt P10636 2-758); experiment: SPR Biacore T200, antigen immobilized
T9 construct: Produced by Escherichia coli; negative control in SPR; also called ATGen Cat. No. ATGP0795
Method: The binding affinities of the hyperphosphorylated tau protein 4R2N (hpTau), non-phosphorylated tau protein 4R0N, monophosphorylated tau peptide 1×P, triphosphorylated tau peptide 3×P, and non-phosphorylated tau peptide Non P with each antibody were measured with an SPR system Biacore T200 (GE Healthcare Japan), in accordance with the instruction manual for evaluation attached to the system.
The His-tagged hpTau or Tau proteins were each immobilized on a sensor chip using an HBS-N buffer (code No. BR-1003-69) as the immobilization reaction solution and allowing a nickel chloride solution to react with the NTA sensor chip for bonding Ni to NTA. Subsequently, the sensor chip was activated with a mixed solution of N-ethyl-N′-(3-dimethylaminopropyl)-carbodiimide hydrochloride (1-ethyl-3-(3-dimethylaminopropyl)carbodiimide hydrochloride: EDC) and N-hydroxysuccinimide (NHS). A solution of each of the His-tagged proteins, adjusted to a concentration of 100 to 500 ng/mL with a 4-(2-hydroxyethyl)-1-piperazineethanesulfonic acid (HEPES) buffer (0.01 M HEPES, 150 mM KCl, 2 mM DTT, 1 mM EDTA, pH 7.2), was applied to the sensor chip, whereby the protein was immobilized on the sensor chip through covalent bonds with the Ni-NTA. The remaining active NHS was blocked with ethanolamine, and Ni ions were removed with an EDTA solution (Ni-affinity amine coupling: see International Publication No. WO2005/022156). The antigen peptides (1×P, 3×P, and Non P) were each immobilized on a sensor chip by activating the NTA sensor chip with a mixed solution of N-ethyl-N′-(3-dimethylaminopropyl)-carbodiimide (EDC) hydrochloride and N-hydroxysuccinimide (NHS), and then applying a solution of the antigen peptide diluted with a 10 mM sodium acetate buffer (pH: 4 to 4.5) to 1 to 10 μM to the sensor chip, whereby the peptide was covalently bound to the sensor chip. The remaining active NHS was blocked with ethanolamine. Thus, sensor chips immobilized respectively with the proteins and peptides mentioned above were produced.
A CAPS buffer (pH 10.5) was applied to these sensor chips at 37° C. to stabilize the protein- or peptide-immobilized surfaces of the sensor chips.

[3] = molecular target: T1, Peptide No. 7, pS396/pS400/pS404, …; experiment: ELISA, coated peptide
How it was run: (§1)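 Peptides, or their bovine serum albumin or keyhole limpet hemocyanin conjugates, at 1 μg/mL in cold PBS were coated at 50 μL/well overnight at 4 °C, then blocked with 3% BSA-PBS overnight at 4 °C. Purified antibody at 150 ng/mL in 3% BSA-PBS was bound for 90 minutes at room temperature, followed by alkaline phosphatase-labelled goat anti-human IgG (H+L) (2000-fold, 60 minutes). Binding was read as absorbance at 405 nm (reference 550 nm) after 40 minutes of pNPP development.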

[4] = molecular target: T2, Peptide No. 8, pS412, H-NV(pS)STGSC-OH; experiment: ELISA, coated peptide
How it was run: as §1

[5] = molecular target: T3, Peptide No. 6, pT231, …; experiment: ELISA, coated peptide
How it was run: as §1

[6] = molecular target: T4, Peptide No. 4, pT212/pS214, …; experiment: ELISA, coated peptide
How it was run: as §1

[7] = molecular target: T5, Peptide No. 3, pS202, H-SSPG(pS)PGTPC-OH; experiment: ELISA, coated peptide
How it was run: as §1

[8] = molecular target: T6, Peptide No. 2, pS199, …; experiment: ELISA, coated peptide
How it was run: as §1

[9] = molecular target: T7, Peptide No. 5, pT217, …; experiment: ELISA, coated peptide
How it was run: as §1

[10] = molecular target: T8, Peptide No. 1, pS46, H-GLKE(pS)PLQT-OH; experiment: ELISA, coated peptide
How it was run: as §1

T9 sequence (P10636 other isoform, or with tags, fused parts or gaps limits assumed): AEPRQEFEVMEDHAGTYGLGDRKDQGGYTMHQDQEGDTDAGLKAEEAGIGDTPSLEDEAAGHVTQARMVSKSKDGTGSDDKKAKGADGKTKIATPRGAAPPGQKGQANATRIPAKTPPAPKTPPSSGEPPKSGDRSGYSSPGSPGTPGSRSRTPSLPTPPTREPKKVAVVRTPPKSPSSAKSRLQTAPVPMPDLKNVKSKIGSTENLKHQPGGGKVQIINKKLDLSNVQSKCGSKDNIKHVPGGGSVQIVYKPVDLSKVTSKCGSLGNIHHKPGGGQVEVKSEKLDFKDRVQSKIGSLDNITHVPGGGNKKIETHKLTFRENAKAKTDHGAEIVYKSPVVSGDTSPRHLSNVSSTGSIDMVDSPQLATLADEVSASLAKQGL
Ser413 phosphorylated tau protein (pSer413-Tau) derived from Alzheimer's disease patient brain homogenate, sequence (P10636 other isoform, or with tags, fused parts or gaps limits assumed): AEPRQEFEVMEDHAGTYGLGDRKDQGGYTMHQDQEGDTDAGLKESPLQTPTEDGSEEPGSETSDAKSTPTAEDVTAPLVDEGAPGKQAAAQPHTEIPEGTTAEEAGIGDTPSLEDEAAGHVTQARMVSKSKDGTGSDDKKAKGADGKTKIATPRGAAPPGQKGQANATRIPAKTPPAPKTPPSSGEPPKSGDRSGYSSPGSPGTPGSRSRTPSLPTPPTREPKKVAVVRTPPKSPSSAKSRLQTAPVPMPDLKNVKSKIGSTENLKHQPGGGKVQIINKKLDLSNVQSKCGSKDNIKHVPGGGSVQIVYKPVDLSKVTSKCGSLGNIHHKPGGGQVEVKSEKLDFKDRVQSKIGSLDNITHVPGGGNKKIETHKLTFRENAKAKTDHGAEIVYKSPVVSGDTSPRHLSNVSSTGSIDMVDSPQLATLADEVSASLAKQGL

Binder | IC50 of the fall of the AT8 AlphaLISA signal with the antibody concentration (signal falls from about 7500 to about 4400 at the highest concentration, about 400 nM; no lower plateau) [1] | binding result [2] | binding result [3] | binding result [4] | binding result [5] | binding result [6] | binding result [7] | binding result [8] | binding result [9] | binding result [10]
Humanized × [MAPT_H] mAb (Ta1505 VL46/VH11) IgG4 S228P/Kappa (CX) (antibody) heavy: not shown light: DIVMTQSPLSLPVTLGEPASISCRSSQSIVHSNGNTYLEWYLQKPGQSPQLLIYTVSNRFSGVPDRFSGSGSGTDFTLKISRVEAEDLGVYYCFQGSHLPLTFGGGTKVEIKRTVAAPSVFIFPPSDEQLKSGTASVVCLLNNFYPREAKVQWKVDNALQSGNSQESVTEQDSKDSTYSLSSTLTLSKADYEKHKVYACEVTHQGLSSPVTKSFNRGEC | 175 nM |  |  |  |  |  |  |  |  | 
humanized antibody L48H62 (antibody, human IgG1, kappa, V domains shown, VL48/VH62, human IgG1/kappa) VH: EVQLVESGGGLVQPGGSLRLSCAASGFAFNSFALNWVRQAPGKGLEWVVHIRSKTNNYATFYADSVKDRFTVSRDDSKNTAYLQMNSLKTEDTATYYCVRRGPRDSWFGYWGQGTLVTVSS VL: DIVMTQSPLSLPVTLGDPASISCRSSQNIVHSNGNTYLEWYQQKPGQSPQLLIYTVSNRFSGVPDRFSGSGSGTDFTLKISRVEAEDLGVYYCFQGSHLPLTFGGGTKVEIKR |  | no binding (tested: 0.2 to 1 nM) | no binding (tested: OD value <0.5; antibody 150 ng/mL) | no binding (tested: OD value <0.5; antibody 150 ng/mL) | no binding (tested: OD value <0.5; antibody 150 ng/mL) | no binding (tested: OD value <0.5; antibody 150 ng/mL) | no binding (tested: OD value <0.5; antibody 150 ng/mL) | no binding (tested: OD value <0.5; antibody 150 ng/mL) | no binding (tested: OD value <0.5; antibody 150 ng/mL) | no binding (tested: OD value <0.5; antibody 150 ng/mL)
humanized antibody L48H64 (antibody, human IgG1, kappa, V domains shown, VL48/VH64, human IgG1/kappa) VH: EVQLVESGGGLVQPGGSLRLSCAASGFTFNSFALNWVRQAPGKGLEWVVHIRSKTNNYATFYAASVKDRFTVSRDDSQNTAYLQMNSLKTEDTATYYCVRRGPRDSWFGYWGQGTLVTVSS VL: DIVMTQSPLSLPVTLGDPASISCRSSQNIVHSNGNTYLEWYQQKPGQSPQLLIYTVSNRFSGVPDRFSGSGSGTDFTLKISRVEAEDLGVYYCFQGSHLPLTFGGGTKVEIKR |  | no binding (tested: 0.2 to 1 nM) | no binding (tested: OD value <0.5; antibody 150 ng/mL) | no binding (tested: OD value <0.5; antibody 150 ng/mL) | no binding (tested: OD value <0.5; antibody 150 ng/mL) | no binding (tested: OD value <0.5; antibody 150 ng/mL) | no binding (tested: OD value <0.5; antibody 150 ng/mL) | no binding (tested: OD value <0.5; antibody 150 ng/mL) | no binding (tested: OD value <0.5; antibody 150 ng/mL) | no binding (tested: OD value <0.5; antibody 150 ng/mL)
humanized antibody L50H11 (antibody, human IgG1, kappa, V domains shown, VL50/VH11, human IgG1/kappa) VH: EVQLVESGGGLVQPGGSLRLSCAASGFTFSSFALNWVRQAPGKGLEWVGHIRSKTNNYATFYAASVKDRFTVSRDDSQNTAYLQMNSLKTEDTATYYCVRRGPRDSWFGYWGQGTLVTVSS VL: DIVMTQSPLSLPVTLGDPASISCRSSQNIVHSNGNTYLEWYQQKPGQSPRLLIYTVSNRFSGVPDRFSGSGSGTDFTLKISRVEAEDLGVYYCFQGSHLPLTFGGGTKVEIKR |  | no binding (tested: 0.2 to 1 nM) | no binding (tested: OD value <0.5; antibody 150 ng/mL) | no binding (tested: OD value <0.5; antibody 150 ng/mL) | no binding (tested: OD value <0.5; antibody 150 ng/mL) | no binding (tested: OD value <0.5; antibody 150 ng/mL) | no binding (tested: OD value <0.5; antibody 150 ng/mL) | no binding (tested: OD value <0.5; antibody 150 ng/mL) | no binding (tested: OD value <0.5; antibody 150 ng/mL) | no binding (tested: OD value <0.5; antibody 150 ng/mL)
